For assay [1], the target named is ECD1-nuc after phosphorylation by Src kinase (phosphate on Tyr-30) (human). Briefly: SPR; ECD1-nuc (Tyr-54 of nuclease removed) immobilised as ligand, nuclease in the reference cell; 2C3 Fab as analyte; measured before and after phosphorylation on the chip by Src kinase; Biacore X100. For orientation: SPR reads the build-up and loss of mass on a sensor chip optically.

In assay [2] the target is ECD1-nuc with the phosphorylation site on Tyr-54 of nuclease removed, not phosphorylated (human). Described as above.
The target in assay [3] is T1, first extracellular domain of DARC followed by nuclease from Staphylococcus aureus (ECD1-nuc), wild type (Homo sapiens, UniProt Q16570).
T1 construct: Duffy Antigen Receptor for Chemokines (DARC, ACKR1), first extracellular domain (ECD1); also called WT ECD1-nuc; consensus ECD1; source: E. coli BL21, purified (Capto-S ion exchange, reversed-phase chromatography); not shown: nuclease from Staphylococcus aureus, C-terminal, kept
Description: ELISA; direct: plate coated with wild-type ECD1-nuc (0.1 μg per well), 2C3 Fab diluted in TBS, 1 h at room temperature; detected with anti-Fab antiserum conjugated with alkaline phosphatase; triplicates. Particulars: both partners purified. (ELISA stands for enzyme-linked immunosorbent assay.)

Assay [4] has as its target T2, Duffy Antigen Receptor for Chemokines (DARC), full-length consensus, expressed in K562 cells (human) (UniProt Q16570).
T2 sequence (chain, N-linked oligosaccharide chains (as made in K562 cells)): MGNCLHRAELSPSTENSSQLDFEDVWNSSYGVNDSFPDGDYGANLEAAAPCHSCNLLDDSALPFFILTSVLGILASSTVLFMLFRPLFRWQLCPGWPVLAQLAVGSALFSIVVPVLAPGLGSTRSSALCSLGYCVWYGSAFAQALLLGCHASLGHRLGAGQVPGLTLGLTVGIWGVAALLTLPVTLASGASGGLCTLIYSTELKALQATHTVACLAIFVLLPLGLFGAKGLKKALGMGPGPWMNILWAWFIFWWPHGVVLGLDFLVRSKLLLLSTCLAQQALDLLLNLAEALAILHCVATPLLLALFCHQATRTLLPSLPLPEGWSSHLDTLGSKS
Briefly: SPR; DARC purified from K562 cells immobilised at ca. 400 RU, reference cell only activated and deactivated; 2C3 Fab as analyte; measured before and after deglycosylation on the chip with N-glycosidase; Biacore X100.

The target in assay [5] is T3, DARC from K562 cells after deglycosylation (Homo sapiens, UniProt Q16570, oligosaccharides removed by PNG-ase F on the chip).
T3 construct: Duffy Antigen Receptor for Chemokines (DARC, Atypical Chemokine Receptor 1), full length; m15 after treatment on the chip; also called deglycosylated DARC; source: K562 cells expressing DARC, purified on an immobilised anti-DARC nanobody; deglycosylated with N-glycosidase (PNG-ase F) on the sensor chip
The assay is described as above. The conditions noted are these: both partners purified.

Assay [6] addresses T1, first extracellular domain of DARC …. Briefly: SPR; 2C3 MAb or 2C3 Fab immobilised by amine coupling (about 400 RU), anti-Kx2 antibody in the reference cell; ECD1-nuc as analyte at 5 concentrations; association 100 sec, dissociation 600 sec; Biacore X100, CM5, HBS-EP; 1:1 Langmuir model. Particulars: both partners purified.
For assay [7], the target named is T4, synthetic peptide DFEDVWNSSYG (residues 21-31 of ECD1 of DARC) (Homo sapiens).
T4 construct: DARC (ACKR1), residues 21-31 of ECD1; also called non-sulfated peptide; source: synthetic peptide; bought: Cambridge Research Biochemicals
T4 chain: DFEDVWNSSYG
Briefly: SPR; competition: 2C3 MAb (culture supernatant diluted 40 times) incubated 1 h at room temperature with the synthetic peptides, then injected over 2000 RU of immobilised WT ECD1-nuc (nuclease in the reference cell); RU read at 90 sec; Biacore X100, CM5, HBS-EP; the pair peptide and MAb. Particulars: one partner purified.

In assay [8] the target is T5, Duffy Antigen Receptor for Chemokines (DARC), full-length consensus, expressed in K562 cells (Homo sapiens, UniProt Q16570, N-linked oligosaccharide chains (as made in K562 cells)).
T5 construct: also called ACKR1; DARC from K562 cells; source: K562 cells, transfected, selected with geneticin: on cells (flow cytometry); purified from the lysate on an immobilised anti-DARC nanobody, eluted with peptide DFEDVW (SPR)
Briefly: flow cytometry on cells; about 10^6 transfected K562 cells incubated 1 hour with 2C3 MAb culture supernatant in PBS-0.2% BSA, PE-conjugated secondary antibody; read-out is the ratio of % cells positive with 2C3 MAb to % positive with the anti-Fy^a antibody; cells with mean fluorescence above 10^2 counted as positive. Particulars: partners not purified. For orientation: In flow cytometry, cells or beads pass a laser one at a time.

For assay [9], the target named is T6, full-length DARC with Tyr-30 replaced by Ala, on K562 cells (Homo sapiens, UniProt Q16570, Y30A (printed as the sequence FEDVWNSSA)).
T6 construct: DARC (ACKR1), full length, mutant; source: K562 cells, transfected, on cells
The description is as above. Particulars: partners not purified.

The target in assay [10] is T7, full-length DARC with Tyr-30 replaced by Glu, on K562 cells (Homo sapiens, UniProt Q16570, Y30E (printed as the sequence FEDVWNSSE)).
T7 construct: DARC (ACKR1), full length, mutant; source: K562 cells, transfected, on cells
Described as above. Particulars: partners not purified.

For assay [11], the target named is T8, full-length DARC without the glycosylation site at Asn-27 (Ser-29 replaced by Ala), on K562 cells (Homo sapiens, UniProt Q16570, S29A (printed as the sequence FEDVWNSAY), site N27 is not glycosylated).
T8 construct: DARC (ACKR1), full length, mutant; source: K562 cells, transfected, on cells
The description is as above. Particulars: partners not purified.

Assay [12] has as its target T9, full-length DARC with Ser-29 and Tyr-30 replaced by Ala, on K562 cells (Homo sapiens (Human)., UniProt Q16570, S29A (printed as the sequence FEDVWNSAA) | Y30A (printed as the sequence …, site N27 is not glycosylated)).
T9 construct: DARC (ACKR1), full length, mutant; source: K562 cells, transfected, on cells
The assay is described as above. Particulars: partners not purified.

Assay [13] concerns the target T10, full-length DARC with Trp-26 replaced by Phe, on K562 cells (Homo sapiens (Human)., UniProt Q16570, W26F (printed as the sequence FEDVFNSSY)).
T10 construct: DARC (ACKR1), full length, mutant; source: K562 cells, transfected, on cells
Described as above. Particulars: partners not purified.

For assay [14], the target named is murine anti-Fy6 monoclonal antibody 2C3 (clone name NaM185-2C3) (mouse). Briefly: SPR; competition: 2C3 MAb (culture supernatant diluted 40 times) incubated 1 h at room temperature with the synthetic peptides, then injected over 2000 RU of immobilised WT ECD1-nuc (nuclease in the reference cell); RU read at 90 sec; Biacore X100, CM5, HBS-EP; the pair peptide and MAb.

The values below come from article PMC4338028, “Studies of a Murine Monoclonal Antibody Directed against DARC: Reappraisal of Its Specificity” (PLoS ONE, 2015).

Square brackets hold non-standard residues; d marks the D form. Ends that are not written are not given here. sY = N[C@@H](Cc1ccc(OS(=O)(=O)O)cc1)C(=O)O

Usually Kd stands for the constant that tells how readily two partners part at equilibrium. The low end stands for tighter binding, the high end for weaker binding. As a reminder, the koff is the rate constant with which the complex falls apart. A low value points to a long-lived complex. As usually defined, the kon is the second-order rate constant of association. Low readings indicate slower complex formation, high ones faster complex formation. The term IC50 denotes the concentration that gives 50% inhibition. Read a low IC50 as higher potency.

B1: 2C3 Fab fragment (Fab, V domains shown)
VH: EVKLVESGGDLVQPGGSLKLSCAASGMTFSSYGMSWVRQTPDKRLELVASINRNGGSTYYPDSVKGRFTISRDNAKNTLYLQMSSLKSEDTAMYFCVRAGDYLSMDYWGQGTSVTVSS
VL: ELVMTQTPLSLPVSLGDQASISCRTSQSLLHSNGNTYLHWYLQKPGQSPKLLIYKVPNRFSGVPDRFSGSGSGTDFTLRITRVEAEDLGVYFCSQSTHVYTFGGGTKLEIK
notes: variable region of the heavy chain, as the VH of m1; CH1 part of the Fab; variable region of the light chain, as the VL of m1; light chain constant domain of the Fab; Cloned by PCR from total RNA of the hybridoma into pComb3H; also called 2C3-derived Fab; source: E. coli (pComb3H vector), purified
Consider B1, for which the Kd stood at 0.459 nM in assay [1]; 14.2 nM in assay [2]; 0.263 nM in assay [4]; 0.0283 nM in [5]; 93 nM in [6]. In addition, the koff in assay [1] was 0.000777 s⁻¹; in assay [2] it was 0.000766 s⁻¹; in assay [4] it was 0.000547 s⁻¹; in assay [5], 0.000276 s⁻¹. Besides, the kon came to 1.69e+06 M⁻¹ s⁻¹ in assay [1], 53900 M⁻¹ s⁻¹ in assay [2], 2.08e+06 M⁻¹ s⁻¹ in assay [4] and 9.75e+06 M⁻¹ s⁻¹ in assay [5]. For the same molecule, the “fold lower affinity than 2C3 MAb (ELISA)” value in assay [3] was ~2 fold.

B2: murine anti-Fy6 monoclonal antibody 2C3 (clone name NaM185-2C3) (antibody, V domains shown)
VH: EVKLVESGGDLVQPGGSLKLSCAASGMTFSSYGMSWVRQTPDKRLELVASINRNGGSTYYPDSVKGRFTISRDNAKNTLYLQMSSLKSEDTAMYFCVRAGDYLSMDYWGQGTSVTVSS
VL: ELVMTQTPLSLPVSLGDQASISCRTSQSLLHSNGNTYLHWYLQKPGQSPKLLIYKVPNRFSGVPDRFSGSGSGTDFTLRITRVEAEDLGVYFCSQSTHVYTFGGGTKLEIK
notes: variable region of the heavy chain; murine heavy chain constant region; variable region of the light chain; murine light chain constant region; Whole murine antibody; The variable regions were cloned from the hybridoma for the Fab; also called 2C3 MAb; MAb 2C3; source: 2C3-producing hybridoma
Molecule B2 displayed a Kd in assay [6] of 1.1 nM. The molecule also came in with a half-maximal inhibitory concentration (IC50) in assay [7] of 410 ± 40 nM. For the same molecule, the “ratio of % cells positive with 2C3 MAb to % cells positive with anti-Fy^a MAb” value in assay [8] stood at 0.97 ± 0.07; in assay [9], 0.75 ± 0.03; in assay [10] it was 1.16 ± 0.09; in [11], 0.97 ± 0.04; in assay [12], 0.95 ± 0.03; in assay [13] it was 0.19 ± 0.02.

B3: synthetic sulfated peptide …(SO3H)G (residues 21-31 of ECD1 of DARC) (peptide)
peptide: DFEDVWNSS[sY]G
Turning to B3, in [14], the IC50 was determined as 252 nM.
